Laboratory results from article PMC10391570 (Cell Reports Methods, 2023).

B1: IgE monoclonal antibody mAb12_2 (antibody, V domains shown)
VH: QAYLQQSGAELVRPGASVKMSCKASGYTFISYNMHWVKQTRRQGLEWIGAIYPGNGDTSYNQKFKGKATLTVDKSSSTAYMQLSSLTSEDSAVYFCARWDYYGSSYGAYWGQGTLVTVSA
VL: DIQMTQSPASLSVSVGETVTITCRASENIYSNLAWYQQKQGKSPQLLVYAATNLADGVPSRFSGSGSGTQYSLKINSLQSEDFGSYYCQHFWGTPWTFGGGTKLEIK
B2: IgE mAb1_2 (antibody, V domains shown)
VH: QIQLVQSGPELKKPGETVKISCKASGYTFTTYGMSWVKQAPGKGLKWMGWINTYSGVPTYADDFKGRFVFSLETSASTAYLQINNLKNEDTATYFCARAYYYGSSYLIWYFDVWGTGTTVTVSS
VL: NIVLTQSPASLAVSLGQRATISCRASESVDSYGNSFMHWYQQKPGQPPKLLIYLASNLESGVPARFSGSGSRTDFTLTIDPVEADDAATYYCQQNNEDPYTFGGGTKLEIK
B3: IgE mAb 8_2 (antibody, V domains shown)
VH: QVLLKESGPGLVAPSQSLSITCTVSGFSLTSYGVSWVRQPPGKGLEWLGVIWGDGNTDYHSALISRLSIRKDNSKSQVFLKLNSLQTDDTATYYCAIGSPFAYWGQGTLVTVSA
VL: DVLMTQTPLSLPVSLGDQVSISCRSSQNIVHSTGNTYLEWYLQKPGQSPKLLIFKVSNRLSGVPDRFSGSGSGTDFTLNISRVEAADLGIYSCFQGSHVPFTFGSGTKLEIK
B4: IgE mAb 21_2 (antibody, V domains shown)
VH: QVQLQQSGPELVKPGASVKISCKAPGNAFSYSWMNWVKQRPGKGLEWVGRIYPGDGDTNYNGKFMGKATLTADKSSNTAYIQLSSLTSEDSAVYFCARSGGGTLYWYFDVWGTGTTVTVSS
VL: DIVMTQSPSSLALSVGQKVTMNCRSSQSLLNSFNQKNYLAWFQQKPGQSPRLLIYFASTRESGVPDRFIGSGSGTDFTLTISSVQAEDLADYFCQQHYNTPLTFGAGTTLELK

How the values were obtained:
Assay in all cases: ELISA
Ole e1 = Ole e1 (Olea europaea, UniProt P19963, biotin (Biotin Conjugation Kit, Lightning-Link))
Fel d1 = Fel d1 (Felis catus, UniProt P30438;P30440)
Der p1 = Der p1 (Dermatophagoides pteronyssinus, UniProt P08176, biotin (Biotin Conjugation Kit, Lightning-Link))
Der p2 = Der p2 (Dermatophagoides pteronyssinus, UniProt P49278, biotin (Biotin Conjugation Kit, Lightning-Link))
Der f1 = Der f1 (Dermatophagoides farinae, UniProt P16311, biotin (Biotin Conjugation Kit, Lightning-Link))
Der f1, sequence (P16311 99-321): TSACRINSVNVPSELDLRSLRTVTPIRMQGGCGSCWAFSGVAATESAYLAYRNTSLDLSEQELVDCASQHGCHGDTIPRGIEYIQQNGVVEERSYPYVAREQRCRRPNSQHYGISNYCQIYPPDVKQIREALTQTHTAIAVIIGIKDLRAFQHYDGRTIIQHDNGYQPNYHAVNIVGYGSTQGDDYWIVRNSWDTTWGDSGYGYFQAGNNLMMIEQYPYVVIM

Der p2, sequence (P49278 18-146): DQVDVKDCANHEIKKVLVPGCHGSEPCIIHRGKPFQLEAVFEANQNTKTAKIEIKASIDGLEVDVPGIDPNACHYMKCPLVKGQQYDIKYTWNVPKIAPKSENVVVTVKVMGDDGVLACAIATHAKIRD
Der p1, sequence (P08176 99-320): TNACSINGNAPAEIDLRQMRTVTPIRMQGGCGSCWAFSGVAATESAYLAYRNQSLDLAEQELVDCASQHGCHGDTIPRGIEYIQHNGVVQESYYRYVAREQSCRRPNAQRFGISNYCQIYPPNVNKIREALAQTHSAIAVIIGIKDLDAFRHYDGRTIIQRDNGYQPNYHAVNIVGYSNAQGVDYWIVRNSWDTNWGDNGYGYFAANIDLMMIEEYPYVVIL
Fel d1, sequence (P30438 23-92, chain 1 of 2): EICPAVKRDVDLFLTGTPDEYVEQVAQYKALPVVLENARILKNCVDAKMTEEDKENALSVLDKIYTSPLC
Fel d1, sequence (P30440 18-109, chain 2 of 2): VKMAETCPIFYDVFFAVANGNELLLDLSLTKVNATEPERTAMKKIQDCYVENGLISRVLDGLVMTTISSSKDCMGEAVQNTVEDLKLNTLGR

| Binder | binding result (Ole e1) | binding result (Fel d1) | binding result (Der p1) | binding result (Der p2) | binding result (Der f1) |
| --- | --- | --- | --- | --- | --- |
| B1 | binds | no binding | binds | binds | binds |
| B2 | – | – | – | – | binds |
| B3 | – | – | – | binds | – |
| B4 | – | – | – | binds | – |
